{"source": "patent US20250090700A1", "about": "(published 2025)", "binders": {"B1": {"name": "IgG1 (antibody, V domains shown)", "VH": "QVQLVQSGAEVKKPGASVKVSCKASGFSFTTYWITWVRQAPGQGLEWIGMIHPSDAETRLSQTFKDKATLTADKSTSTAYMELSSLRSEDTAVYYCARDFDVWGQGTLVTVSS", "VL": "DVVMTQSPLSLPVTLGQPASISCRSSQNIVHQNGQTYLGWYLQKPGQSPQLLIFRVSNRFSGVPDRFSGSGSGTDFTLKISRVEAEDVGVYYCFQGSHIPRTFGQGTRLEIK"}, "B2": {"name": "IgG4PE (antibody, V domains shown)", "VH": "B1 VH", "VL": "B1 VL"}}, "molecular_target": "synthetic sugar epitope", "test": "Biacore (SPR)"}
{"binder": "B1", "values": [{"measurement": "Kd", "result": 3.9, "unit": "nM"}]}
{"binder": "B2", "values": [{"measurement": "Kd", "result": 3.1, "unit": "nM"}]}
